Assay results from article PMC7534368.

Assays:
[1] = molecular target: SARS-CoV-2 spike ectodomain with the wild-type sequence (S-WT), aa 15-1,213, with C-terminal thrombi (SARS-CoV-2 | bacteriophage T4) (UniProt P0DTC2); test: AUC
[2] = molecular target: SARS-CoV-2 spike ectodomain, prefusion trimer-stabilized form (S-2P), aa 15-1,213, with C-terminal t (SARS-CoV-2 | bacteriophage T4) (UniProt P0DTC2); test: cryo-EM structure

| Substance | stoichiometry N [1] | stoichiometry N [2] |
| --- | --- | --- |
| SARS-CoV-2 spike ectodomain with the wild-type sequence (S-WT), aa 15-1,213, with C-terminal thrombi (from UniProt P0DTC2 15-1213) (domain or fragment) | 3 |  |
| SARS-CoV-2 spike ectodomain, prefusion trimer-stabilized form (S-2P), aa 15-1,213, with C-terminal t (from UniProt P0DTC2 15-1213) (domain or fragment) |  | 3 |
